This is an account of results in patent US20230296621A1 (CHAN ZUCKERBERG BIOHUB, published 2023).

For this experiment, the target named is SARS-CoV-2 Spike receptor binding domain (SpikeRBD, aa 328-533) (SARS-CoV-2, UniProt P0DTC2 328-533). The experiment in a line: BLI on immobilised biotinylated Spike-RBD.

B1: C004 IgG (antibody, V domains shown)
VH: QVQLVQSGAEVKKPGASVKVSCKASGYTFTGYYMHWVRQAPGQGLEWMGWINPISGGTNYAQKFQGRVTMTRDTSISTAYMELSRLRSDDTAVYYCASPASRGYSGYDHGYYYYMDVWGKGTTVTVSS
VL: AIRMTQSPSSLSASVGDRVTITCQASQDISNYLNWYQQKPGKAPKLLIYDASNLETGVPSRFSGSGSGTDFTFTISSLQPEDIATYYCQQYDNLPITFGQGTRLEIKR
notes: also called recombinant anti-S-RBD antibody C004
Take B1: the binding result is “binds”.

B2: C105 IgG (antibody, V domains shown)
VH: QVQLVESGGGLIQPGGSLRLSCAASGFTVSSNYMSWVRQAPGKGLEWVSVIYSGGSTYYADSVKGRFTISRDNSKNTLYLQMNSLRAEDTAVYYCARGEGWELPYDYWGQGTLVTVSS
VL: QSALTQPPSASGSPGQSVTISCTGTSSDVGGYKYVSWYQQHPGKAPKLMIYEVSKRPSGVPDRFSGSKSGNTASLTVSGLQAEDEADYYCSSYEGSNNFVVFGGGTKLTVLG
Regarding B2, the binding result is given as “binds”.
